Some targets named below: TJP1_2, Q07157; HTRA1, Q92743; NHERF4_2, Q86UT5; DLG1_3, Q12959; NOS1, P29475; PTPN3, P26045; PICK1, Q9NRD5; IL16_3, Q14005; MAGI2_5, Q86UL8; AHNAK1, Q09666; MAST1, Q9Y2H9; DLG2_3, Q15700.
Holding throughout (assay): holdup assay
Parameters in all cases: key: below the threshold = too weak to quantify, mostly under pKd 3.1 to 4
Common to all, as to conditions: plain residues with an end cap or a label only (N-terminal biotin on a linker: ado-ado)

The next assay has as its target T1, NHERF3_4, Q5T2W1.
T1 sequence (Q5T2W1 373-468, limits assumed, looked up): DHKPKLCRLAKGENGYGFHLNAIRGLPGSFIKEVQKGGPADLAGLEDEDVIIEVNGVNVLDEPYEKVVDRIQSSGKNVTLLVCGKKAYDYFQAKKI

For the next assay, the target named is T2, LRRC7, Q96NW7.
T2 sequence (Q96NW7 1440-1537, limits assumed, looked up): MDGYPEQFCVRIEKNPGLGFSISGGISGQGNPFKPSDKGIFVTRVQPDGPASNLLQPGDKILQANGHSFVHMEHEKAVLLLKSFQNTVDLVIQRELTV

A further assay deals with T3, MPDZ_10, O75970.
T3 sequence (O75970 1624-1722, limits assumed, looked up): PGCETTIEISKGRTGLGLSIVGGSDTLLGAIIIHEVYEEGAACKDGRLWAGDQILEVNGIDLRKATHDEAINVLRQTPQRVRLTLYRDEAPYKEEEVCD

The target in a further assay is T4, MPDZ_12, O75970.
T4 sequence (O75970 1857-1958, limits assumed, looked up): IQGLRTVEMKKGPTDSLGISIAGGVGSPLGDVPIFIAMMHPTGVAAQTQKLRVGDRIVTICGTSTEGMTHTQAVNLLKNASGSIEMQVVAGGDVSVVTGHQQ

The next assay has as its target T5, PDZRN3_1, Q9UPQ7.
T5 sequence (Q9UPQ7 244-349, limits assumed, looked up): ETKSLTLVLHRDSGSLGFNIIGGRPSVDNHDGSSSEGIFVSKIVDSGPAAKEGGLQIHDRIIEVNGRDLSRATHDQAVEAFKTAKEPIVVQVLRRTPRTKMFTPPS

For another assay, the target named is T6, LIN7A, O14910.
T6 sequence (O14910 103-200, limits assumed, looked up): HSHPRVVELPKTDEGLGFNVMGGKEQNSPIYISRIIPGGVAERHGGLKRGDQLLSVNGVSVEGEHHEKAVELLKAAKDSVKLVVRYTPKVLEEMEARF

The target in a further assay is T7, TX1BP3, O14907.
T7 sequence (O14907 10-122, limits assumed, looked up): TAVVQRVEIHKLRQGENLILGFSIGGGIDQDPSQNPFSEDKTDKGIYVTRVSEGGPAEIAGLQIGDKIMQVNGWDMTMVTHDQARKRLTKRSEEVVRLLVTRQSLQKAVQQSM

A further assay has as its target T8, DLG3_1, Q92796.
T8 sequence (Q92796 125-227, limits assumed, looked up): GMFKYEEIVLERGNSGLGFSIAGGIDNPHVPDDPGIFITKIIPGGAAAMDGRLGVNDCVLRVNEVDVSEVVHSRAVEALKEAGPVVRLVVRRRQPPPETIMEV

The next assay deals with T9, DFNB31_3, Q9P202.
T9 sequence (Q9P202 811-907, limits assumed, looked up): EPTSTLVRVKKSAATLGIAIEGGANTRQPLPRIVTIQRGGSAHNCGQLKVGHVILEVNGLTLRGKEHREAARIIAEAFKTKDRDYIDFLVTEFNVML

In another assay the target is T10, MPDZ_5, O75970.
T10 sequence (O75970 695-796, limits assumed, looked up): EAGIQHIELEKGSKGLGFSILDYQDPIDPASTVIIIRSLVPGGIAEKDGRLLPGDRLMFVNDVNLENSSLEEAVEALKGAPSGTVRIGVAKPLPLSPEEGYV

The target in another assay is T11, APBA3_1, O96018.
T11 sequence (O96018 389-490, limits assumed, looked up): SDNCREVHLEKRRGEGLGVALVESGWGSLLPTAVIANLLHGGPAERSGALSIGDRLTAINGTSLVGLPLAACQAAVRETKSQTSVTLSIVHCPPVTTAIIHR

A further assay deals with T12, ARHGEF11, O15085.
T12 sequence (O15085 42-136, limits assumed, looked up): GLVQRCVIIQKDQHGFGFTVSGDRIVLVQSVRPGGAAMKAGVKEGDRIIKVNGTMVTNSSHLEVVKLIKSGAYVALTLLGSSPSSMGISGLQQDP

IL16_3, Q14005, sequence (Q14005 1107-1207): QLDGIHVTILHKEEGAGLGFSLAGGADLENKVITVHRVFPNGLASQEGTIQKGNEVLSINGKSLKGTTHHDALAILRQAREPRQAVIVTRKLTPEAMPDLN
HTRA1, Q92743, sequence (Q92743 360-477): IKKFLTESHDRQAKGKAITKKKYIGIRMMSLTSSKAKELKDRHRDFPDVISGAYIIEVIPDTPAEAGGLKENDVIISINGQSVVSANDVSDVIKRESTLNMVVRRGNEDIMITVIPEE
NHERF4_2, Q86UT5, sequence (Q86UT5 220-308): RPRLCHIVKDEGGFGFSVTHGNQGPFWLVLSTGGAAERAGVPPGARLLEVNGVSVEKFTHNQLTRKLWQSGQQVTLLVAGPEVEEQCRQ
MAGI2_5, Q86UL8, sequence (Q86UL8 915-1017): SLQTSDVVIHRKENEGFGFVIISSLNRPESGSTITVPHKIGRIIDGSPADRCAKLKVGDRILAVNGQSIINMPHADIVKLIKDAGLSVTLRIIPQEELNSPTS
AHNAK1, Q09666, sequence (Q09666 4-100): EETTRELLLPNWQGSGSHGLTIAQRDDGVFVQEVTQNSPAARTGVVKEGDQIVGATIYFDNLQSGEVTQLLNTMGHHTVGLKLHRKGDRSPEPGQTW
TJP1_2, Q07157, sequence (Q07157 181-274): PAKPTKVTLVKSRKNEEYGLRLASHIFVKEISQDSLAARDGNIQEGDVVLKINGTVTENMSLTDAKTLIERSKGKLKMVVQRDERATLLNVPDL
MAST1, Q9Y2H9, sequence (Q9Y2H9 962-1065): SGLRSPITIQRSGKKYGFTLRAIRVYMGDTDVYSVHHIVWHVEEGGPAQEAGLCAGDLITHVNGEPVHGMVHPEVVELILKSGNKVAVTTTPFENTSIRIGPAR
NOS1, P29475, sequence (P29475 9-101): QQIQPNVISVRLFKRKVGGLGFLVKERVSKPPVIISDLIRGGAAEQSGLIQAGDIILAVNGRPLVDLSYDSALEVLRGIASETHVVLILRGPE
DLG1_3, Q12959, sequence (Q12959 457-571): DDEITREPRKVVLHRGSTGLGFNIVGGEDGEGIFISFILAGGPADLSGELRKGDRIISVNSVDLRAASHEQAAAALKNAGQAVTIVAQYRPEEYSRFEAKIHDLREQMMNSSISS
PTPN3, P26045, sequence (P26045 505-587): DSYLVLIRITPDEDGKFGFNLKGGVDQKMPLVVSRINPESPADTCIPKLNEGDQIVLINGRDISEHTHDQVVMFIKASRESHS
PICK1, Q9NRD5, sequence (Q9NRD5 17-115): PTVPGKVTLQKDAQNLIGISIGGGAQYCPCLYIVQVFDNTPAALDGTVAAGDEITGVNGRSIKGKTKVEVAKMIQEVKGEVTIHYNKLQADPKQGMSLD

B1: SEMA4F, O95754 (peptide)
chain: PLATCDETSI
Consider B1, for which the pKd entry with TJP1_2, Q07157 is “below the threshold”; with HTRA1, Q92743, 3.89; in the assay with NHERF3_4, Q5T2W1, “below the threshold”; in the assay with NHERF4_2, Q86UT5, “below the threshold”; with DLG1_3, Q12959, “below the threshold”; with NOS1, P29475, “below the threshold”. Moreover, the pKd entry in the assay with LRRC7, Q96NW7 was “below the threshold”; with PTPN3, P26045, 4.72; in the assay with MPDZ_10, O75970, “below the threshold”; with MPDZ_12, O75970, “below the threshold”; with PDZRN3_1, Q9UPQ7 it was 4.03; with LIN7A, O14910 it was “below the threshold”. In addition, the pKd result with TX1BP3, O14907 is “below the threshold”; with DLG3_1, Q92796, “below the threshold”; with DFNB31_3, Q9P202, 3.7; with PICK1, Q9NRD5, “below the threshold”; with IL16_3, Q14005, “below the threshold”; in the assay with MAGI2_5, Q86UL8, “below the threshold”. Besides, the pKd result with AHNAK1, Q09666 was “below the threshold”; in the assay with MAST1, Q9Y2H9 it was 4.64; with DLG2_3, Q15700 it was 3.9; in the assay with MPDZ_5, O75970 it was “below the threshold”; with APBA3_1, O96018 it was “below the threshold”; in the assay with ARHGEF11, O15085, “below the threshold”.

B2: TBPL1, P62380 (peptide)
chain: FVFESRKEIL
Consider B2, for which the pKd entry was “below the threshold” with TJP1_2, Q07157; 3.89 with HTRA1, Q92743; “below the threshold” in the assay with NHERF3_4, Q5T2W1; “below the threshold” in the assay with NHERF4_2, Q86UT5; “below the threshold” with DLG1_3, Q12959; 3.68 with NOS1, P29475. In addition, the negative-log Kd (pKd) entry in the assay with LRRC7, Q96NW7 is listed as “below the threshold”; in the assay with PTPN3, P26045 it was “below the threshold”; with MPDZ_10, O75970 it was “below the threshold”; with MPDZ_12, O75970, “below the threshold”; with PDZRN3_1, Q9UPQ7, “below the threshold”; in the assay with LIN7A, O14910, “below the threshold”. For the same molecule, the negative logarithm of the Kd (pKd) result is “below the threshold” with TX1BP3, O14907; “below the threshold” in the assay with DLG3_1, Q92796; “below the threshold” in the assay with DFNB31_3, Q9P202; “below the threshold” with PICK1, Q9NRD5; “below the threshold” with IL16_3, Q14005; “below the threshold” with MAGI2_5, Q86UL8. The pKd result is “below the threshold” with AHNAK1, Q09666; 4.21 with MAST1, Q9Y2H9; “below the threshold” with DLG2_3, Q15700; “below the threshold” in the assay with MPDZ_5, O75970; “below the threshold” in the assay with APBA3_1, O96018; “below the threshold” with ARHGEF11, O15085.

B3: SDC3, O75056 (peptide)
chain: KPDKQEEFYA
Turning to B3, the pKd result with TJP1_2, Q07157 is “below the threshold”; in the assay with HTRA1, Q92743, 4.9; with NHERF3_4, Q5T2W1, “below the threshold”; in the assay with NHERF4_2, Q86UT5 it was “below the threshold”; with DLG1_3, Q12959, “below the threshold”; in the assay with NOS1, P29475, “below the threshold”. Besides, the pKd result with LRRC7, Q96NW7 is “below the threshold”; with PTPN3, P26045, 3.8; in the assay with MPDZ_10, O75970 it was “below the threshold”; with MPDZ_12, O75970 it was 3.73; in the assay with PDZRN3_1, Q9UPQ7, “below the threshold”; with LIN7A, O14910, “below the threshold”. Further, the pKd entry with TX1BP3, O14907 is “below the threshold”; in the assay with DLG3_1, Q92796, “below the threshold”; with DFNB31_3, Q9P202 it was 3.49; in the assay with PICK1, Q9NRD5, “below the threshold”; in the assay with IL16_3, Q14005, “below the threshold”; in the assay with MAGI2_5, Q86UL8, “below the threshold”. Moreover, the negative-log Kd (pKd) result was “below the threshold” with AHNAK1, Q09666; 3.64 with MAST1, Q9Y2H9; 3.64 with DLG2_3, Q15700; “below the threshold” in the assay with MPDZ_5, O75970; “below the threshold” with APBA3_1, O96018; “below the threshold” with ARHGEF11, O15085.

B4: GRK6, P43250 (peptide)
chain: DSEEELPTRL
Regarding B4, the pKd entry with TJP1_2, Q07157 was “below the threshold”; in the assay with HTRA1, Q92743, 4.18; in the assay with NHERF3_4, Q5T2W1, 3.79; with NHERF4_2, Q86UT5 it was “below the threshold”; with DLG1_3, Q12959, 3.73; with NOS1, P29475 it was 3.61. The pKd entry with LRRC7, Q96NW7 was “below the threshold”; with PTPN3, P26045, 3.77; with MPDZ_10, O75970, “below the threshold”; with MPDZ_12, O75970, 3.47; with PDZRN3_1, Q9UPQ7, “below the threshold”; in the assay with LIN7A, O14910, “below the threshold”. In addition, the pKd entry with TX1BP3, O14907 was “below the threshold”; in the assay with DLG3_1, Q92796 it was “below the threshold”; with DFNB31_3, Q9P202, 3.53; with PICK1, Q9NRD5, 4.25; with IL16_3, Q14005, “below the threshold”; in the assay with MAGI2_5, Q86UL8, “below the threshold”. Besides, the pKd result is “below the threshold” with AHNAK1, Q09666; 4.19 with MAST1, Q9Y2H9; “below the threshold” in the assay with DLG2_3, Q15700; “below the threshold” in the assay with MPDZ_5, O75970; “below the threshold” in the assay with APBA3_1, O96018; 3.78 with ARHGEF11, O15085.
